The target of test [1] is UCHL1 R178Q (from pGEX-6p-1) (human) (UniProt P09936).
Test [2] has as its target UCHL1, wild type (from pGEX-6p-1) (human) (UniProt P09936).

In paper PMC11488486 one finds KM of UCHL1-catalyzed hydrolysis of Ub-Rho (Michaelis-Menten kinetics) data, which are given here for 1 substance.

As to Ub-Rhodamine, the KM of UCHL1-catalyzed hydrolysis of Ub-Rho (Michaelis-Menten kinetics) in test [1] worked out at 0.17 µM; in test [2] it was 0.03 µM.
